Assays:
[1] = target: His-tagged BG505 SOSIP.664 trimer produced in 293S cells, EndoH-deglycosylated (HIV-1 isolate BG505); experiment: SPR; Biacore 3000, 25 °C, HBS-EP; His-tagged trimer captured by anti-histidine antibody on CM5 to 500 RU; 3BC315 IgG or Fab titrated down in twofold steps from 1 μM; IgG fitted with a bivalent, Fab with a Langmuir model
[2] = target: BG505 SOSIP.664 trimer produced in 293S cells (HIV-1 isolate BG505); experiment: ITC
[3] = target: BG505 SOSIP.664 trimer produced in 293S cells, deglycosylated by EndoH (HIV-1 isolate BG505); experiment: ITC; Auto-iTC200; trimer in the cell at 4.0–5.0 μM, 3BC315 Fab in the syringe at ~20 × the molar concentration of the trimer; single-site binding model
[4] = target: His-tagged BG505 SOSIP.664 trimer produced in 293T cells (HIV-1 isolate BG505); experiment: SPR; design: kon1: unit not given here
[5] = target: 3BC315 Fab; experiment: ELISA; settings: read off a plot
[6] = target: 2G12; experiment: ELISA; settings: read at the highest antibody concentration, 1 µg/ml 2G12, read off a plot
[7] = target: PGT145; experiment: ELISA; settings: read at the highest antibody concentration, about 15 µg/ml PGT145; parent: est. 0.87; read off a plot
[8] = target: 3BC176 IgG; experiment: ELISA; settings: parent: est. 0.92; read off a plot
[9] = target: JR-FL Env on virus (HIV-1 isolate JR-FL) (UniProt Q75760)
[10] = target: BG505 Env on virus (HIV-1 isolate BG505)

3BC315 Fab gave a Kd [1] of 7.1 nM, a koff [1] of 0.00059 s⁻¹ and a stoichiometry N [1] of 1.9. It also gave a Kd [2] of 186 nM, a stoichiometry N [2] of 1.17 and a Kd [3] of 167 nM. For the same molecule, the stoichiometry N [3] was 1.71.

Work on 3BC315 IgG (antibody) yielded a Kd1 [4] of under 10 nM, a Kd2 [4] of 24 RU and a koff1 [4] of under 1e-05 s⁻¹. For the same molecule, the koff2 [4] was 0.0084 s⁻¹, the kon1 [4] was 4900 and the kon2 [4] was 0.00034 RUs^−1. It also gave a stoichiometry N [4] of 1.1.

In the case of “D7324-tagged BG505 SOSIP.664 trimer produced in 293T cells N88Q”, the response [5] is reported as 0.98 OD450 and the response ([6]; parent: est. 1.2) is reported as 1 OD450.

“D7324-tagged BG505 SOSIP.664 trimer produced in 293T cells N625Q; N637Q” was tested, and the response ([5]; read at the highest concentration, 10 µg/ml 3BC315 Fab, parent: est. 1.1) was 0.93 OD450.

For “D7324-tagged BG505 SOSIP.664 trimer produced in 293T cells W623A”, the response [7] was 0.83 OD450, the response [8] was 0.4 OD450 and the response ([6]; parent: est. 1.25) was 1.2 OD450.

B1: 3BC176 IgG (antibody, V domains shown)
VH: QVQLMQSGAQLRDPGDSLKISCKASGYNFIDYHIHWVRLAPGRGLEWMGWIDPVGGITKYAGQFQGRLSLTRDTSTNTLFLELSRLTAGDTAVYFCARSMRPVDHGIDYSGLFVFHFWGRGSDVLVSS
VL: QSVLTQPASVSASPGQSITVSCTGSRNDVGGYDFVSWYQRHPGGVPKLIIYEISKRPSGIPQRFSGSRSGNTASLTISGLQDDDEADYYCCSYASYDRLIFGGGTRVSVL
B1 showed an IC50 of neutralisation of JR-FL virus (TZM-bl) after 1, 3, 6 and 22 h pre-incubation with IgG (0.30 falling to 0.03) [9] of 0.3 µg/mL and an IC50 of neutralisation of BG505 virus (TZM-bl) after 1, 3, 6 and 22 h pre-incubation with IgG (1.93 falling to 0.33) [10] of 1.93 µg/mL.

B2: 3BC315 IgG (antibody, V domains shown)
VH: QVQLVQSGAEMKDPGASVKVSCRASGYKFTDYYMHWVRQAPGQGLEWVGWVNTNGGFTKYGAKFQGRVTVTRDTSTNTVFLELSRLTFGDTAMYFCARPMRPVSHGIDYSGLFVFQFWGRGTMVTVSS
VL: QSALTQPASVSASPGQSITISCSGTRSDVGGYDFVSWYQQHPGKVPKLIIYEVTKRPSGIPQRFSGSKSGNTASLTISGLQADDEADYYCCSYANYDKLILGGGTKLTVL
In the case of B2, the IC50 of neutralisation of JR-FL virus (TZM-bl) after 1, 3, 6 and 22 h pre-incubation with IgG (5.84 falling to 0.83) [9] is reported as 5.84 µg/mL and the IC50 of neutralisation of BG505 virus (TZM-bl) after 1, 3, 6 and 22 h pre-incubation with IgG (1.62 falling to 0.41) [10] is reported as 1.62 µg/mL.

From paper PMC4586043
